We go through three molecules from US20240360214A1 (Pfizer, published 2024).

For experiment [1], the target named is T1, human LILRB1 (huLILRB1), purified recombinant protein from R&D Systems (human, UniProt Q8NHL6 24-458, limits assumed).
T1 construct: Bought protein, used as the SPR analyte and as the ELISA coat; The catalog number 8429-T4 is printed once for 'human LILRB2 or LILRB1'
The experiment in a line: SPR (Biacore 8K, 37 C), antibody captured by anti-human Fc, huLILRB1 as analyte, 1:1 fit. Here is the method:
Biacore kinetic assays were conducted at 37° C. with a collection rate of 10 Hz using the Biacore 8K and 8K+instruments (Cytiva). Anti-LILRB2 antibodies were captured by an anti-human IgG (Fc specific) antibody (BR-1008-39, Cytiva) covalently coupled onto a CM5 sensor chip (29-1496-03, Cytiva) according to the manufacturer's instructions. The final capture levels of the antibodies ranged from 20 resonance units (RU) to 60 RU. HBS-EP+pH 7.4 (10 mM HEPES pH 7.4, 150 mM NaCl, 3 mM EDTA, 0.05% Tween 20) was used as sample and running buffer. Flow cell 1 was used as a reference flow cell. […] Dilutions were prepared in duplicate and injected over all flow cells for 60 s at flow rate of 50 μl per minute. Dissociation was monitored for 600 s and the surface was regenerated with two 30 s injections of 3M MgCl₂ at flow rate of 50 μl per minute. The resulting data was double referenced (Myszka, D. G. Improving biosensor analysis. J. Mol. Recognit. 12:279-284; (1999). Rate constants and affinities were determined by fitting the sensorgram data to a Langmuir 1:1 model using Biacore Insight Evaluation software version 3.0.12 (Cytiva). Results are summarized in Table 7.
For orientation: Surface plasmon resonance follows binding to a sensor surface in real time, without labels.

In experiment [2] the target is T2, LILRB2 expressed on THP1 cells (human, UniProt Q8N423 22-597).
T2 construct: whole, on cells; also called THP1 LILRB2 expressing cells; THP1-LILRB2 cells
T2 sequence (Q8N423 22-597): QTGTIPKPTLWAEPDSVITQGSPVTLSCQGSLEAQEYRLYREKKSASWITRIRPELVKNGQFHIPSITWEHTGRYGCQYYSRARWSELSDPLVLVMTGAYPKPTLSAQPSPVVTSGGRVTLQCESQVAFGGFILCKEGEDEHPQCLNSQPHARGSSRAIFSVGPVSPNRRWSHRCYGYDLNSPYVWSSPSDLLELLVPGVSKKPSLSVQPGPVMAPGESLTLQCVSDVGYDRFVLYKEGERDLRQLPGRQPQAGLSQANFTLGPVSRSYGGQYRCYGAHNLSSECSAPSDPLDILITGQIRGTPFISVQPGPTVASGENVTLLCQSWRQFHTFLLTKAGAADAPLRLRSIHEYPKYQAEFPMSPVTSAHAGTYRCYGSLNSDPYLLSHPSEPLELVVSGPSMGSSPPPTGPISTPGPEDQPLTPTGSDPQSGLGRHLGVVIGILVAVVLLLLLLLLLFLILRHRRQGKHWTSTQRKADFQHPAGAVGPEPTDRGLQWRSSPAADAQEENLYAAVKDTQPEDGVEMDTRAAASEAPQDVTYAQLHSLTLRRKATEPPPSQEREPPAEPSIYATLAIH
The experiment in a line: flow cytometry competition with PE HLA-G tetramer on THP1-LILRB2 cells. As for the experimental part:
(§1) LILRB1 or LILRB2 overexpressing THP1 cells were prepared in FACS buffer (0.5% BSA in PBS) and seeded in 100 μl/well (96 well plate) at 1λ10⁶ cells/ml concentration. The tested antibodies were serially diluted 3-fold into assay buffer starting from 200 nM. 40 μl of serial diluted antibody together with 40 μl of PE labelled HLA-G tetramer (FRED HUTCH IMT40509) at 2 ug/ml were added to each well and incubated on ice for 1 hour. The cells were washed 2 times with FACS buffer and resuspended in 50 μl/well FACS buffer containing 1:1000 dilution of LIVE/Dead fixable violet dead cell stain (Invitrogen #L34964), incubated on ice for 15 minutes. The cells were then washed with FACS buffer for 2 times and resuspended in 80 μl of Cytofix buffer (BD Cat #554655).
(§2) The cell-based HLA-G ligand blocking assays followed the same procedure as described in Example 2.

Experiment [3] deals with T3, LILRB1 expressed on THP1 cells (human, UniProt Q8NHL6 24-650).
T3 construct: whole, on cells; also called THP1 LILRB1 expressing cells; THP1-LILRB1 cells
T3 sequence (Q8NHL6 24-650): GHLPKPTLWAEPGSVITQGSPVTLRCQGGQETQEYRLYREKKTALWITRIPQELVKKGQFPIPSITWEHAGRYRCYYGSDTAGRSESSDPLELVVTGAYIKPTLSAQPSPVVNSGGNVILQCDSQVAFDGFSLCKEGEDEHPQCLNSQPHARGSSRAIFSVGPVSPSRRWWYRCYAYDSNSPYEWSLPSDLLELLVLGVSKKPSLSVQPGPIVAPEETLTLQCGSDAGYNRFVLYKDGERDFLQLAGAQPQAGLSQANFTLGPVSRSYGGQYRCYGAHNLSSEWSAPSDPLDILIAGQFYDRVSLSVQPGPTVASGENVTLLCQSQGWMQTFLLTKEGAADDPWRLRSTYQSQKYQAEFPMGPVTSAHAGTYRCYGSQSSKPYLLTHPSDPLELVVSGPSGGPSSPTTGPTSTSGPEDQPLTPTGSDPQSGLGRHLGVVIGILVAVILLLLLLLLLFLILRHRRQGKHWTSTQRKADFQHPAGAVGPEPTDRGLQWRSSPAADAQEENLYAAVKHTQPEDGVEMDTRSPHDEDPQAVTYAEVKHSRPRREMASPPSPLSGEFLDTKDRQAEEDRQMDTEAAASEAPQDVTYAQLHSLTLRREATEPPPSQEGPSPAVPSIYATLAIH
The experiment in a line: flow cytometry competition with PE HLA-G tetramer on THP1-LILRB1 cells. As for the experimental part:
as §1, §2
For orientation: In flow cytometry, cells or beads pass a laser one at a time.

Experiment [4] deals with T4, human LILRB2 (huLILRB2), purified recombinant protein (human, UniProt Q8N423 22-458, limits assumed).
T4 construct: Bought protein, used as the SPR analyte and as the ELISA coat; also called huLILIB2
T4 sequence (Q8N423 22-458 limits assumed): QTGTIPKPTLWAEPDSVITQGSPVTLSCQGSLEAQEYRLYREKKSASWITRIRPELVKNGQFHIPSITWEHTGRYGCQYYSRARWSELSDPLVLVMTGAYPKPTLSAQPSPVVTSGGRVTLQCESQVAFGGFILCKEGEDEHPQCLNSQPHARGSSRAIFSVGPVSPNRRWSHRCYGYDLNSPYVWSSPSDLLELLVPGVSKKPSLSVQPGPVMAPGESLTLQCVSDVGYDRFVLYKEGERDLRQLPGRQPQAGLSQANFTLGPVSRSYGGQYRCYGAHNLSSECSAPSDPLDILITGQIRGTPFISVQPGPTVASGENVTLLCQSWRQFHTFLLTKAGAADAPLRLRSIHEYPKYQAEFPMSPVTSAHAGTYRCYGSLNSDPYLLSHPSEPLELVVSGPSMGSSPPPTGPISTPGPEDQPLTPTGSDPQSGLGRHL
In words: SPR (Biacore 8K, 37 C), antibody captured by anti-human Fc, huLILRB2 as analyte, 1:1 fit.

Experiment [5] concerns the target T4, human LILRB2 (huLILRB2), purified …. The experiment in a line: ELISA, target coated on the plate, detection with anti-human IgG-HRP, OD at 450 nm. Here is the method:
(§3) Purified target proteins huLILRA1, A2, A3, A4, A5, A6, huLILRB1, B2, B3, B4 and B5 (all purchased from R&D) were coated on Nunc-Maxisorb 96-well ELISA plate at 1 ug/ml concentration and stored at 4° C. overnight. Plate was washed 3 times with PBS+0.05% Tween-20 and blocked with PBS+3% milk for 1 hour at room temperature. Tested LILRB1/LILRB2 bispecific antibody was serially diluted 5-fold in PBS+3% milk, starting from 133 nM. Blocking solution was removed and serially diluted antibody was added and incubated for 1 hour at room temperature. Plate was washed and a secondary detecting antibody (goat anti-human IgG-HRP from Invitrogen, Cat #31413, 1:5000) was added and incubated for 30 minutes at room temperature. Plate was washed again for 5 times; signal was developed using TMB substrate and the reaction stopped with 0.18M H₂SO₄. Absorbance was read at 450 nm on an envision plate reader (Perkin Elmer). […] There were no binding activities observed to any of the huLILRA family members tested, and no binding to huLILRB3, B4 or B5.
(An ELISA detects its analyte on a solid surface through an enzyme-linked reagent.)

The target of experiment [6] is T5, huLILRA5 (human, UniProt A6NI73 42-268, limits assumed). The description is as above. As for the experimental part:
as §3

Experiment [7] addresses T6, huLILRA1 (human, UniProt O75019 17-461, limits assumed). The experiment is described as above. As for the experimental part: as §3
A further experiment deals with huLILRB4 (human, UniProt Q8NHJ6 22-259, limits assumed). The experiment is described as above. As for the experimental part: as §3
Another experiment has as its target huLILRA3 (human, UniProt Q8N6C8 24-439). Described as above. Here is the method:
as §3

Experiment [8] has as its target T7, huLILRA2 (human, UniProt Q8N149 24-449, limits assumed). Described as above. As for the experimental part: as §3
In a further experiment the target is huLILRA4 (human, UniProt P59901 24-446, limits assumed). The description is as above. As for the experimental part: as §3
Sequence of huLILRA4 (P59901 24-446 limits assumed): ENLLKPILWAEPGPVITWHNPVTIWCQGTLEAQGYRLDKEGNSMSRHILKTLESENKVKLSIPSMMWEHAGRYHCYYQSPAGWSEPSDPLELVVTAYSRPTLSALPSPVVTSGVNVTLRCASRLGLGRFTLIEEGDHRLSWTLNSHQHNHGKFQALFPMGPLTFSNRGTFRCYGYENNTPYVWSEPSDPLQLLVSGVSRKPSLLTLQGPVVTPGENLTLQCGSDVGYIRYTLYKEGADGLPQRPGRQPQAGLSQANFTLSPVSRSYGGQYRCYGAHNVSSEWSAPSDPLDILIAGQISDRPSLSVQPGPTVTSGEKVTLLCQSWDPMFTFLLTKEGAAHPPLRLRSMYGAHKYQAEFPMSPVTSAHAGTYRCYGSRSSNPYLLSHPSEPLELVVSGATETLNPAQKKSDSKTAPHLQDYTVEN
The target of the next experiment is huLILRB3 (human, UniProt O75022 24-443, limits assumed). Described as above. Here is the method:
as §3

The target in a further experiment is huLILRA6 (human, UniProt Q6PI73 24-447, limits assumed). Described as above. As for the experimental part:
as §3

A further experiment addresses huLILRB5 (human, UniProt O75023 24-458, limits assumed). The experiment is described as above. As for the experimental part:
as §3

Experiment [9] addresses T5, huLILRA5. The experiment in a line: SPR (Biacore), antibody captured.
In experiment [10] the target is T6, huLILRA1. In words: SPR (Biacore), antibody captured.
Experiment [11] addresses T7, huLILRA2. The experiment in a line: SPR (Biacore), antibody captured.
Experiment [12] deals with T1, human LILRB1 (huLILRB1), purified …. In words: SPR (Biacore 8K, 37 C), antibody captured by anti-human Fc, huLILRB1 as analyte, 1:1 fit. Here is the method:
Biacore kinetic assays were conducted at 37° C. with a collection rate of 10 Hz using the Biacore 8K and 8K+ instruments (Cytiva). […] The final capture levels of the antibodies ranged from 20 resonance units (RU) to 60 RU. HBS-EP+pH 7.4 (10 mM HEPES pH 7.4, 150 mM NaCl, 3 mM EDTA, 0.05% Tween 20) was used as sample and running buffer. Flow cell 1 was used as a reference flow cell. Two-fold serial dilutions of human LILRB2 or LILRB1 (R&D Systems, Catalog number: 8429-T4) were prepared with concentrations from 45 nM to 1.667 nM for LILRB2; 405 nM to […] for LILRB1. Dilutions were prepared in duplicate and injected over all flow cells for 60 s at flow rate of 50 μl per minute. Dissociation was monitored for 600 s and the surface was regenerated with two 30 s injections of 3M MgCl₂ at flow rate of 50 μl per minute. The resulting data was double referenced (Myszka, D. G. Improving biosensor analysis. J. Mol. Recognit. 12:279-284; (1999). Rate constants and affinities were determined by fitting the sensorgram data to a Langmuir 1:1 model using Biacore Insight Evaluation software version 3.0.12 (Cytiva).
This is another data set of the same source.

Experiment [13] deals with T3, LILRB1 expressed on THP1 cells. In words: flow cytometry competition with PE HLA-G tetramer on THP1-LILRB1 cells. As for the experimental part: as §1
The source holds these as a separate data set.

Experiment [14] has the same target. The experiment in a line: flow cytometry competition with PE HLA-G tetramer on THP1-LILRB1 cells (THP-B1). Here is the method:
as §1

Residue numbers refer to the chain shown, from its start. Like-named read-outs stand apart in the source and are kept apart here.

T1 sequence (Q8NHL6 24-458 limits assumed): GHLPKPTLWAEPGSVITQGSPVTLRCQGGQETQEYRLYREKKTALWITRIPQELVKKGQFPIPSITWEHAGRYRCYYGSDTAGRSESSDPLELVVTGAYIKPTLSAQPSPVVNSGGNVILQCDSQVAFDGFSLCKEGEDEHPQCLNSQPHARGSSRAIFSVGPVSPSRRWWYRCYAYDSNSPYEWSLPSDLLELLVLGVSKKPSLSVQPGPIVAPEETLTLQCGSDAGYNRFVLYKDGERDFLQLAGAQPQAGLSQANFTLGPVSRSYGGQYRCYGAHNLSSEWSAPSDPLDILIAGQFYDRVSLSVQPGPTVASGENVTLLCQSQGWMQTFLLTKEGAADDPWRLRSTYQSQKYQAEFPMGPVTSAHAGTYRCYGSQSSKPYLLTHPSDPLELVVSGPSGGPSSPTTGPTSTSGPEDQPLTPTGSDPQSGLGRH
T7 sequence (Q8N149 24-449 limits assumed): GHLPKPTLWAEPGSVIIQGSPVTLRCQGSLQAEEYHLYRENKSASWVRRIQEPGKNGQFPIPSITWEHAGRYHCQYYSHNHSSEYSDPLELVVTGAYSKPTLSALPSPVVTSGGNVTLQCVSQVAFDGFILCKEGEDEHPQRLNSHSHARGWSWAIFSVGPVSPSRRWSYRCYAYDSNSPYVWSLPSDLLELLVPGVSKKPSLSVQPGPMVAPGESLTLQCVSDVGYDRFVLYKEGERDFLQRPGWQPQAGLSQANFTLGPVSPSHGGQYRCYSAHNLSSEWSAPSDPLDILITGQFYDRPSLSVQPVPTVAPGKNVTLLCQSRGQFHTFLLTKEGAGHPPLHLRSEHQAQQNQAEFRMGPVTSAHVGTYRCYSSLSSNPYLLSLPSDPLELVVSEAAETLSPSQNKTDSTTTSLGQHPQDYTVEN
T5 sequence (A6NI73 42-268 limits assumed): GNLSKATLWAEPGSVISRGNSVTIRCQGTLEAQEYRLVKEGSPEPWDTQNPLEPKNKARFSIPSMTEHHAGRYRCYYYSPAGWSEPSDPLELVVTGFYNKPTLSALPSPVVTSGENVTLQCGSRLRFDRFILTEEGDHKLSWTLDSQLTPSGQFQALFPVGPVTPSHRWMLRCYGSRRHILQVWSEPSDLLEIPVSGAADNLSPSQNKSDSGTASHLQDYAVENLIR
T6 sequence (O75019 17-461 limits assumed): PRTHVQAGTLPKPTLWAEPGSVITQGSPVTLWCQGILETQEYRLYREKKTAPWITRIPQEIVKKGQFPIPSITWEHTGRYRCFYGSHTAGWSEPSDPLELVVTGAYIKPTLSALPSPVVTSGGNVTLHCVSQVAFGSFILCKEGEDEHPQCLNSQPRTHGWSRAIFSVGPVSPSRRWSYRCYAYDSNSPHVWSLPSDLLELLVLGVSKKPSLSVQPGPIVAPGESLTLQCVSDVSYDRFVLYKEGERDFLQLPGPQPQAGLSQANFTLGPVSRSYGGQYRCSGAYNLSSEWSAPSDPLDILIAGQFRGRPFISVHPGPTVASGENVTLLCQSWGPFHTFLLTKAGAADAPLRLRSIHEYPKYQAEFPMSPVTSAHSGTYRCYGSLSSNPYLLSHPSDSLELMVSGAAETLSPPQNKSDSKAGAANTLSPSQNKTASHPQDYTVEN
Sequence of huLILRB3 (O75022 24-443 limits assumed): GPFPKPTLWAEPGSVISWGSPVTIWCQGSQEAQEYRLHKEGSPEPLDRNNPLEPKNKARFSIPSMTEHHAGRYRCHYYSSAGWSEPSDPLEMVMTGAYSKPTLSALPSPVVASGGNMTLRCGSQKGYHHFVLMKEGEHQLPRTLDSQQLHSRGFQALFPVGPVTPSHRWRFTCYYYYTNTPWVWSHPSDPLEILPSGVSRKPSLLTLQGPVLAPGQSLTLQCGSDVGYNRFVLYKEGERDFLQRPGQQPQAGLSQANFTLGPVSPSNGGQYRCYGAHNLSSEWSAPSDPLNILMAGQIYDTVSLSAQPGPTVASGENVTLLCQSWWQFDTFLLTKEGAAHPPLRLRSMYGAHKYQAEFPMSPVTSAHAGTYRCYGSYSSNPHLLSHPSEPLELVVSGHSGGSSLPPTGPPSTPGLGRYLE
Sequence of huLILRB5 (O75023 24-458 limits assumed): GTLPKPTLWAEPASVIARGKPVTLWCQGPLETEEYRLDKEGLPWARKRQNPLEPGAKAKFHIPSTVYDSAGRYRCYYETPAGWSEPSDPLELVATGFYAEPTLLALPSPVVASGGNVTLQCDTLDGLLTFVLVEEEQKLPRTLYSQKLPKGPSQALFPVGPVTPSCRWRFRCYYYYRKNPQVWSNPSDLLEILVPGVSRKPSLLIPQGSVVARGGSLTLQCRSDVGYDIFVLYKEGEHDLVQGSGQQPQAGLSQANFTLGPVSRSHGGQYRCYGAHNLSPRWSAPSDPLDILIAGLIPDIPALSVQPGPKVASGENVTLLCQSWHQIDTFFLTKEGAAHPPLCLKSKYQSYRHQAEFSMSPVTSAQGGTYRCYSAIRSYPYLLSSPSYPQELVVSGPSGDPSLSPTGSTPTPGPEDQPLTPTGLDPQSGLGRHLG
Sequence of huLILRA6 (Q6PI73 24-447 limits assumed): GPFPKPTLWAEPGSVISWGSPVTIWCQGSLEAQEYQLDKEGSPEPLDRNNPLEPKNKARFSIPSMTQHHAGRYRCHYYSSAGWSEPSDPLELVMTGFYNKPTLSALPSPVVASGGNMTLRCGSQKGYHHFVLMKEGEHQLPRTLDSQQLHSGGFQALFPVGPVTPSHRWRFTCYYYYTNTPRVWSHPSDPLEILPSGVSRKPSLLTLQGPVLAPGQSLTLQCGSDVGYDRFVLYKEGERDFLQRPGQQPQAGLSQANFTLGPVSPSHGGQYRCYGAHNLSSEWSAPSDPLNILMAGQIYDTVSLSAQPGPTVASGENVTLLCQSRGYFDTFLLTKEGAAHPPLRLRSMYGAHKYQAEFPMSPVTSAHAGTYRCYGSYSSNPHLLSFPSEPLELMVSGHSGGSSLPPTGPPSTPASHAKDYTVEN

B1: LILRB1xLILRB2 bispecific antibody BsAb-1882 (bispecific antibody)
heavy 1: not shown
light 1: SYELTQPPSVSVSPGQTASITCGGNNIGSKGVHWYQQKPGQSPVLVISYDSDRPSGIPERFSGSNSGNTATLTISGTQAMDEADYYCQVWDSSTRVFGTGTKVTVLGQPKAAPSVTLFPPSSEELQANKATLVCLISDFYPGAVTVAWKADSSPVKAGVETTTPSKQSNNKYAASSYLSLTPEQWKSHRSYSCQVTHEGSTVEKTVAPTECSDKTHTCPPCPAPEAAGAPSVFLFPPKPKDTLMISRTPEVTCVVVDVSHEDPEVKFNWYVDGVEVHNAKTKPREEQYNSTYRVVSVLTVLHQDWLNGKEYKCKVSNKALPAPIEKTISKAKGQPREPQVYTLPPCREEMTKNQVSLSCAVKGFYPSDIAVEWESNGQPENNYKTTPPVLDSDGSFFLVSKLTVDKSRWQQGNVFSCSVMHEALHNHYTQKSLSLSPGK
heavy 2: EVQLLESGGGLVQPGGSLRLSCAASGFTFSSYAMSWVRQAPGKGLEWVSAISGSGGSTYYADSVKGRFTISRDNSKNTLYLQMNSLRAEDTAVYYCWRWLNLGDAFDIWGQGTMVTVSSASTKGPSVFPLAPSSKSTSGGTAALGCLVKDYFPEPVTVSWNSGALTSGVHTFPAVLQSSGLYSLSSVVTVPSSSLGTQTYICNVNHKPSNTKVDKKVEPKSCDKTHTCPPCPAPEAAGAPSVFLFPPKPKDTLMISRTPEVTCVVVDVSHEDPEVKFNWYVDGVEVHNAKTKPREEQYNSTYRVVSVLTVLHQDWLNGKEYKCKVSNKALPAPIEKTISKAKGQPREPQVCTLPPSREEMTKNQVSLWCLVKGFYPSDIAVEWESNGQPENNYKTTPPVLDSDGSFFLYSKLTVDKSRWQQGNVFSCSVMHEALHNHYTQKSLSLSPGK
light 2: not shown
notes: The B1 arm Fc chain is joined to the light chain CL; also called LILRB1/LILRB2 bispecific antibody
As usually defined, the Kd is a measure of binding affinity in units of concentration. As usually defined, the koff is a measure of how fast the partners let go of each other. One may read the kon as the rate constant with which the complex forms. For orientation: t½ means the time needed for the level to fall by half in the phase considered. The IC50 is the concentration at which inhibition is half-maximal. Low values mean inhibition by little substance, high ones a need for much substance. The term EC50 (read off the curve) denotes the midpoint of the concentration-response curve. For the molecule B1, the dissociation constant Kd in [1] turned out to be 29.8 nM; in experiment [4], 0.73 nM. The values for the dissociation rate constant (koff) in experiment [1] and in experiment [4] were 0.0135 s⁻¹ and 0.000323 s⁻¹, respectively. Besides, the on-rate constant (kon) in experiment [1] was found to be 457000 M⁻¹ s⁻¹; in experiment [4] it was 443000 M⁻¹ s⁻¹. Also, the “t½” value in [1] is 51.3 s; in [4], 35.8 min. For the same molecule, the IC50 in experiment [2] turned out to be 15.4 nM; in experiment [3], 37.6 nM. Further, the “EC50 (read off the curve)” value in [5] is approximately 0.6 nM. The binding result in the experiment with huLILRA5 [6], in the experiment with huLILRA1 [7], with huLILRB4, with huLILRA3, with huLILRA2 [8] and with huLILRA4 was “no binding (tested: about 130 nM)” in each case. Besides, the binding result in the experiment with huLILRB3, with huLILRA6 and in the experiment with huLILRB5 was “no binding (tested: about 130 nM)” in each case.

B2: LILRB1xLILRB2 bispecific antibody BsAb-1880 (bispecific antibody, human IgG1)
heavy 1: not shown
light 1: SYELTQPPSVSVSPGQTASITCGGNNIGSKGVHWYQQKPGQSPVLVISYDSDRPSGIPERFSGSNSGNTATLTISGTQAMDEADYYCQVWDSSTRVFGTGTKVTVLGQPKAAPSVTLFPPSSEELQANKATLVCLISDFYPGAVTVAWKADSSPVKAGVETTTPSKQSNNKYAASSYLSLTPEQWKSHRSYSCQVTHEGSTVEKTVAPTECS
heavy 2: B1 heavy 2 with D223E, C351Y, W368T, L370E
light 2: not shown
Regarding B2, the half-maximal inhibitory concentration (IC50) in experiment [2] came to 16.1 nM; in experiment [3] it was 43.2 nM.

B3: anti-LILRB1 antibody Ab-B1-1704 (antibody, human IgG1, lambda, V domains shown)
VH: EVQLVESGGGLVQPGGSLRLSCAASGFTFSSYAMHWVRQAPGKGLEWVAVISYDGSNKYYADSVKGRFTISRDNAKNSLYLQMNSLRAEDTAVYYCARDKGIGTSPLDYWGQGTLVTVSS
VL: SYELTQPPSVSVSPGQTASITCGGNNIGSKGVHWYQQKPGQSPVLVISYDSDRPSGIPERFSGSNSGNTATLTISGTQAMDEADYYCQVWDSSTRVFGTGTKVTVLG
Usually EC50 stands for the concentration at which the effect is half-maximal. Read a low EC50 as greater potency. B3: the binding result with huLILRA5 [9] is “no binding”. Besides, the binding result with huLILRA1 [10] is reported as “no binding”. In addition, the binding result with huLILRA2 [11] is recorded as “no binding”. Also, in [12], the dissociation constant Kd was 26 nM, the koff was found to be 0.014 s⁻¹, the kon worked out at 539000 M⁻¹ s⁻¹ and the “t½” value came to 49.5 s. Moreover, in [13], the half-maximal inhibitory concentration (IC50) turned out to be 1.5 nM. Also, the EC50 in experiment [14] turned out to be 2.69 nM.
